Experimental data reported in the supplement of paper PMC9732359.
± gives the uncertainty stated by the source.

Assay: protein stability index of a GFP-peptide fusion (yeast GPS) (PSI 1-4); higher = more stable; sorted into four equal gates, so the index is relative within each strain
In short: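 Plasmids isolated from each sorting gate were PCR-amplified and Illumina-sequenced, and barcodes assigned the reads to strains. The gates, four of equal size, were set by GFP/Cherry fluorescence ratio on mid-log cultures in leucine-free medium. These cultures were yeast carrying a pooled library of tiled 17-residue yeast protein peptides fused downstream of GFP on a plasmid that also expresses Cherry. The protein stability index is the sum of every gate's read frequency times its gate number.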

Sequence	protein stability index (doa10∆)	protein stability index (pdr5∆)	protein stability index (san1∆)	protein stability index (ubr1∆)
RDHKSYSQSPPRSPGRS [SMC4]	2.59 ± 0.092	2.98 ± 0.081	3.01 ± 0.17	2.87 ± 0.052
RDLKPSNLEKLLFINSS [YML103C/NUP188]	1.93 ± 0.11	1.91 ± 0.093	1.66 ± 0.13	1.69 ± 0.1
REASKDNVDFILSNVDL [RPB3]	3.49 ± 0.1	3.3 ± 0.085	3.38 ± 0.061	3.32 ± 0.073
REGSSARTIKATLPYIK [RPB2]	2.42 ± 0.067	3.17 ± 0.077	2.85 ± 0.061	2.69 ± 0.059
REIQTAVRLILPGELAK [HTB1]	3.25 ± 0.088	3.14 ± 0.06	2.55 ± 0.088	3.08 ± 0.051
REKNSLESGKETALEFL [SMC4]	3.47 ± 0.17	3.17 ± 0.11	3.07 ± 0.086	3.63 ± 0.093
RELLKSQVEDFTRIFLP [SIR3]	3.2 ± 0.053	3.1 ± 0.059	3.13 ± 0.053	3.33 ± 0.045
REMALCRELHNKHLTTL [SSN3]	1.62 ± 0.037	2.04 ± 0.041	1.87 ± 0.056	1.8 ± 0.038
RENGKGGQIAHILFQNN [ROX3]	1.88 ± 0.062	2.32 ± 0.06	2.75 ± 0.061	2.48 ± 0.12
REPDFWVIRKQRRTNNS [MED6]	3.51 ± 0.15	3.29 ± 0.09	2.97 ± 0.097	2.93 ± 0.096
REPRVVSALQMLKQHLF [PUP1]	3.1 ± 0.13	3.05 ± 0.094	3.02 ± 0.066	2.79 ± 0.049
REQSSNDSETHTEDEST [BRN1]	–	3.43 ± 0.27	–	–
RESLIMLLEEQLEYKRG [MED7]	2.51 ± 0.08	2.77 ± 0.071	2.42 ± 0.091	2.75 ± 0.057
RFMKGRRSKQLINLAKT [RPC82]	2.56 ± 0.1	2.78 ± 0.11	2.72 ± 0.074	2.62 ± 0.12
RFTKFSDTLKEFKIEQN [YDL116W/NUP84]	1.74 ± 0.076	1.74 ± 0.081	1.42 ± 0.18	1.45 ± 0.058
RGFSKDLKSKADKLADM [RRP6]	3.34 ± 0.28	–	–	–
RGNTKIHSMNENPTPEK [SIR3]	3.11 ± 0.085	3.15 ± 0.11	3.08 ± 0.056	3.31 ± 0.067
RGTIPLLERYIGNLITR [PRP8]	1.52 ± 0.055	1.55 ± 0.045	1.48 ± 0.08	1.6 ± 0.039
RGYTCQFVDMVLPNTAL [FAS1]	1.75 ± 0.075	1.88 ± 0.048	1.32 ± 0.089	1.53 ± 0.05
RHKNKHIQGFPTLGERL [DSN1]	3.41 ± 0.091	3.64 ± 0.13	3.37 ± 0.06	3.44 ± 0.076
RHMVDDKIHARARGPMQ [RPB2]	3.38 ± 0.17	3.48 ± 0.13	3.27 ± 0.16	2.7 ± 0.16
RIIGLSATLPNYEDVGR [BRR2]	2.23 ± 0.045	2.18 ± 0.039	2.33 ± 0.044	1.94 ± 0.039
RILAMCVKNHGQSSSIQ [YCS4]	2.11 ± 0.055	1.79 ± 0.051	2.13 ± 0.057	1.94 ± 0.054
RILKNKAEYLKNCPITQ [RPC40]	2.96 ± 0.052	3.12 ± 0.048	3.02 ± 0.04	2.83 ± 0.037
RINTLPQVQLPVRALIV [ECM29]	–	1.93 ± 0.26	–	–
RIPFSERKLKFSNRFLP [FAS1]	1.28 ± 0.084	1.17 ± 0.077	1.11 ± 0.13	1.31 ± 0.084
RISEKSVRKFLEIALFK [RPO31]	1.93 ± 0.14	1.15 ± 0.13	–	–
RITNSFYSTNSQYFKFK [RPN9]	2.5 ± 0.1	2.38 ± 0.076	2.42 ± 0.086	2.83 ± 0.16
